# Results as given in patent US8703915B2, “Mutant proteins and methods for producing them” (Heptares Therapeutics Limited, priority 2009, dated 2014).
# “Also recorded” adds a separate entry of the source.
# T1: M4 muscarinic receptor (Homo sapiens, UniProt P08173, L74A)
# T1 construct: made in house; host or cells: HEK293T cells, transient
# T1 sequence (P08173 1-479 L74A): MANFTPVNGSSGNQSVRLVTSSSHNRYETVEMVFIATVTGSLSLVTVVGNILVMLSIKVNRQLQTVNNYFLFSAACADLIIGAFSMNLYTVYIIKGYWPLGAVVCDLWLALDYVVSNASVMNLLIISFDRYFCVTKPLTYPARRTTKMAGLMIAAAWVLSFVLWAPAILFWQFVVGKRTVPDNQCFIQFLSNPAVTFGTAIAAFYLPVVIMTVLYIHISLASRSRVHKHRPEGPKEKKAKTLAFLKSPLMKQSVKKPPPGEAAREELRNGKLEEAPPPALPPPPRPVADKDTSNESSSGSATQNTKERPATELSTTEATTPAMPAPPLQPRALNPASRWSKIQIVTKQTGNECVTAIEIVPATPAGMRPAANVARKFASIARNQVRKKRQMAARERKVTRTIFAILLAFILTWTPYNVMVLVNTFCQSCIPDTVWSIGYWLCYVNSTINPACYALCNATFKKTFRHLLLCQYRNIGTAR
# T2: M4 muscarinic receptor (Homo sapiens, UniProt P08173, L71A)
# T2 construct: made in house; host or cells: HEK293T cells, transient
# T2 sequence (P08173 1-479 L71A): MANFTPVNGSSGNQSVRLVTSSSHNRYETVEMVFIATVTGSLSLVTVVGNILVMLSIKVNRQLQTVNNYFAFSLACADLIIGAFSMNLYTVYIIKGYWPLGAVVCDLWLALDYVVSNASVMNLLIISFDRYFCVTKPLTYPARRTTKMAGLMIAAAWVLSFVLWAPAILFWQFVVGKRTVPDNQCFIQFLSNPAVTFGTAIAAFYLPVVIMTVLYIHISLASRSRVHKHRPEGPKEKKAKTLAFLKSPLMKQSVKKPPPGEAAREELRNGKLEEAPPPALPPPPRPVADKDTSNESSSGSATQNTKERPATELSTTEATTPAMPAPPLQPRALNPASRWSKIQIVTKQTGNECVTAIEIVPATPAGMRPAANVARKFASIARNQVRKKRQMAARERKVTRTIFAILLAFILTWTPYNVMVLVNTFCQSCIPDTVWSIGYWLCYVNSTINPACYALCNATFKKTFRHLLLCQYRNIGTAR
# Columns and labels:
# [1] = molecular target: T1, M4 muscarinic receptor; assay: Thermostability of M4 muscarinic receptor bound to antagonist NMS; type: physicochemical; conditions: antagonist NMS bound, data not shown
# Method: (§1) In order to stabilise the M4 muscarinic receptors in antagonist conformation, a systematic alanine-scan was performed to identify mutations that stabilise receptors bound to the muscarinic antagonist, NMS. […] However, L71A (three residues N-terminal of the L2.46) was identified as a stabilising mutation. This mutation increases the Tm of this receptor by about 2° C. (FIG. 8a).
# (§2) A2AR-(2-316) expression was carried out by using the pRG/III-hs-MBP E. coli expression vector and DH5α cells. Cells were grown at 37° C. in 2 L flasks containing 500 mL of 2×TY medium supplemented with Ampicillin (100 μg/mL) and glucose (0.2% w/v). At OD600≈0.7, IPTG and theophylline were added at final concentrations respectively of 0.5 mM and 100 μM, and the temperature was reduced to 20° C. After 22 to 24 hours, cells were harvested in aliquots of 14 mL, centrifuged for 30 min and stored at −20° C. Both 5HT2C and M4 receptors were transiently expressed in HEK293T cells using GeneJuice transfection reagent used according to the manufacturers guidelines.
# (§3) Transiently transfected mammalian cells expressing M4 were harvested about 40 hours post transfection and the receptors were solubilised in 50 mM Tris pH 7.5/250 mM NaCl/1% DDM/EDTA free protease inhibitor mix for 1 hour rotating at 4° C. The solubilised lysate was then cleared by centrifugation at 13000 rpm for 15 minutes at 4° C. The solubilised receptors were then purified on Ni-NTA beads and eluted with 100 mM histidine. The eluted receptor was used in radioligand binding assay. Thermostability of M4 was measured using 25 μL of purified receptor mixed with 95 μL of 12 nM [^3H]-NMS (final concentration of 10 nM). The sample was incubated for 60 min at 4° C., then 30 min at the specified temperature and then 30 min at 4° C. Receptor bound and free radioligand were separated using a 96-well plate gel filtration assay.
# [2] = molecular target: T2, M4 muscarinic receptor; assay: as above; type: physicochemical; conditions: antagonist NMS bound, versus parent M4
# Method: as §1, §2, §3
# [3] = test system: M4 muscarinic receptor; assay: as above; type: physicochemical, human; conditions: bound to antagonist NMS
# Method: as §1, §2, §3
# [4] = test system: A2A receptor; assay: Thermostability of A2A receptor in NECA agonist-bound state, solubilised in DDM; type: physicochemical, human
# Method: (§4) In order to stabilise an agonist-bound conformation, a systematic Alanine-scan was performed in order to identify mutations that may stabilise the A2A receptor bound to its full agonist NECA. In this A2A agonist-bound study, L2.46 (L48A) is the most stabilising single mutant. When NECA is bound to the solubilised receptor, removing the L48 side chain (in A2A-L48A) dramatically increases the thermostability of the ligand-receptor complex resulting in an increase of 14° C. over the wild type receptor in the detergent DDM (FIG. 5a). […] We evaluated the signalling property of the A2A receptor by over-expressing the receptor in CHO cells. A2A agonist stimulation triggers the signal transduction through the Gs-trimeric complex and increases the intracellular cAMP level. The increase in intracellular cAMP can be detected by and quantified by using an anti-cAMP Mab antibody competition assay. […] However the signalling efficacy is reduced to 30% (FIG. 6).
# as §2
# An aliquot of E. coli cells expressing wild type or mutant A2AR-(2-316) (14 mL) was thawed on ice and cells were resuspended in 500 μL of buffer A (50 mM Tris HCl mM/pH 7.4; 0.4 M NaCl, 250 μg/mL lysozyme (Sigma), 1 mg/mL DNAse I (Sigma), supplemented with complete EDTA-free Protease inhibitor cocktail (Roche)) and incubated 1 hour at 4° C. Samples were then sonicated 1 min at 4° C. using a cup-horn sonicator. […]
# [5] = test system: A2A receptor; assay: Thermostability of A2A receptor in ZM241385 antagonist-bound state, solubilised in DDM; type: physicochemical, human; conditions: ZM antagonist
# Method: as §4
# A2AR-(2-316) expression was carried out by using the pRG/III-hs-MBP E. coli expression vector and DH5α cells. Cells were grown at 37° C. in 2 L flasks containing 500 mL of 2×TY medium supplemented with Ampicillin (100 μg/mL) and glucose (0.2% w/v). At OD600≈0.7, IPTG and theophylline were added at final concentrations respectively of 0.5 mM and 100 μM, and the temperature was reduced to 20° C. […]
# [6] = molecular target: T3, A2A receptor (Homo sapiens, UniProt P29274, L48A); assay: cAMP functional assay (HTRF), NECA stimulation of CHO cells over-expressing A2A receptor; type: cell-based; conditions: cAMP, relative to A2A-WT
# T3 construct: transfected with 100 ng of pcDNA-3-A2A(2-316) pre-incubated with 0.3 μL of GeneJuice; expressed in transfected cells; host or cells: CHO cells, transient
# Method: as §4
# (§5) This assay takes advantage of Homogeneous Time-Resolved Fluorescence (HTRF) using cAMP labeled with the dye d2 in presence of an anti-cAMP Mab labeled with Cryptate. The method is based on a competitive immunoassay between cAMP produced by cells and the cAMP labeled with the dye d2. CHO cells were grown using Glutamax Ham's F12, 10% FBS in 96-well plates, clear bottom and Black wall (Costar). Cells were seeded at a density of 12500 cells per well, grown overnight, washed with PBS and then transfected with 100 ng of pcDNA-3-A2A(2-316) pre-incubated with 0.3 μL of GeneJuice (Novagen) per well. After 48 hours of receptor expression, the medium was removed, the cells were washed in PBS then stimulated by using different NECA concentrations, in the presence of Rolipram (50 μM) and Adenosine deaminase in a total volume of 50 μL for 30 minutes. Dilution was realised in Hamf's F12/cAMP-d2 conjugate according to the manufacturer protocol, without serum. […] The plate was incubated at room temperature for 1 hour and then read using the Pherastar 96-well time-resolved fluorescence plate reader (Ex 340 nm; Em 665/620 nm).
# [7] = test system: A2A receptor; assay: as above; type: cell-based, human; conditions: intracellular cAMP, CHO cells
# Method: as §4, §5
molecule,measurement,setting,value
"M4 L2.46: M4 muscarinic receptor with L2.46 residue mutated to alanine (protein, UniProt P08173 1-479, looked up, variant L74A) Muscarinic acetylcholine …: MANFTPVNGSSGNQSVRLVTSSSHNRYETVEMVFIATVTGSLSLVTVVGNILVMLSIKVNRQLQTVNNYFLFSAACADLIIGAFSMNLYTVYIIKGYWPLGAVVCDLWLALDYVVSNASVMNLLIISFDRYFCVTKPLTYPARRTTKMAGLMIAAAWVLSFVLWAPAILFWQFVVGKRTVPDNQCFIQFLSNPAVTFGTAIAAFYLPVVIMTVLYIHISLASRSRVHKHRPEGPKEKKAKTLAFLKSPLMKQSVKKPPPGEAAREELRNGKLEEAPPPALPPPPRPVADKDTSNESSSGSATQNTKERPATELSTTEATTPAMPAPPLQPRALNPASRWSKIQIVTKQTGNECVTAIEIVPATPAGMRPAANVARKFASIARNQVRKKRQMAARERKVTRTIFAILLAFILTWTPYNVMVLVNTFCQSCIPDTVWSIGYWLCYVNSTINPACYALCNATFKKTFRHLLLCQYRNIGTAR",effect on thermal stability,[1],does not change the thermal stability of this receptor significantly
"L71A: M4 muscarinic receptor mutant L71A, three residues N-terminal of the L2.46 (protein, UniProt P08173 1-479, looked up, variant L71A) Muscarinic acetylcholine …: MANFTPVNGSSGNQSVRLVTSSSHNRYETVEMVFIATVTGSLSLVTVVGNILVMLSIKVNRQLQTVNNYFAFSLACADLIIGAFSMNLYTVYIIKGYWPLGAVVCDLWLALDYVVSNASVMNLLIISFDRYFCVTKPLTYPARRTTKMAGLMIAAAWVLSFVLWAPAILFWQFVVGKRTVPDNQCFIQFLSNPAVTFGTAIAAFYLPVVIMTVLYIHISLASRSRVHKHRPEGPKEKKAKTLAFLKSPLMKQSVKKPPPGEAAREELRNGKLEEAPPPALPPPPRPVADKDTSNESSSGSATQNTKERPATELSTTEATTPAMPAPPLQPRALNPASRWSKIQIVTKQTGNECVTAIEIVPATPAGMRPAANVARKFASIARNQVRKKRQMAARERKVTRTIFAILLAFILTWTPYNVMVLVNTFCQSCIPDTVWSIGYWLCYVNSTINPACYALCNATFKKTFRHLLLCQYRNIGTAR",increase of Tm,[2],about 2 °C
same,Tm,[3],36.0 °C
"A2A-L48A: human adenosine A2A receptor mutant, Leu 48 (L2.46) replaced by alanine (protein, UniProt P29274 1-412, looked up, variant L48A) Adenosine receptor A2a: MPIMGSSVYITVELAIAVLAILGNVLVCWAVWLNSNLQNVTNYFVVSAAAADIAVGVLAIPFAITISTGFCAACHGCLFIACFVLVLTQSSIFSLLAIAIDRYIAIRIPLRYNGLVTGTRAKGIIAICWVLSFAIGLTPMLGWNNCGQPKEGKNHSQGCGEGQVACLFEDVVPMNYMVYFNFFACVLVPLLLMLGVYLRIFLAARRQLKQMESQPLPGERARSTLQKEVHAAKSLAIIVGLFALCWLPLHIINCFTFFCPDCSHAPLWLMYLAIVLSHTNSVVNPFIYAYRIREFRQTFRKIIRSHVLRQQEPFKAAGTSARVLAAHGSDGEQVSLRLNGHPPGVWANGSAPHPERRPNGYALGLVSGGSAQESQGNTGLPDVELLSHELKGVCPEPPGLDDPLAQDGAGVS",Tm,"[4]; NECA agonist-bound state (400 nM), solubilised in DDM",42.5±1.0 °C
same,increase in thermostability over the wild type receptor,"[4]; NECA bound, detergent DDM",14 °C
same,antagonist binding,[5],abolishes the binding of the antagonist; also recorded: no binding detected
same,signalling efficacy,[6],30%
same,pEC50,[7],8.10±0.39
